Assay results: patent publication US7378234

Target: soluble HLA-B*0702 (human)

For SPGALVVGVI (modifications not checked) [Ipep 1838], the % competition was 30%.
